Reference: PMC3105044, “The Membrane Bound LRR Lipoprotein Slr, and the Cell Wall-Anchored M1 Protein from Streptococcus pyogenes Both Interact with Type I Collagen” (PLoS ONE, 2011)

B1: M1 protein from Streptococcus pyogenes, purified from culture supernatants of strain MC25 (natural protein)
chain: NGDGNPREVIEDLAANNPAIQNIRLRYENKDLKARLENAMEVAGRDFKRAEELEKAKQALEDQRKDLETKLKELQQDYDLAKESTSWDRQRLEKELEEKKEALELAIDQASRDYHRATALEKELEEKKKALELAIDQASQDYNRANVLEKELETITREQEINRNLLGNAKLELDQLSSEKEQLTIEKAKLEEEKQISDASRQSLRRDLDASREAKKQVEKDLANLTAELDKVKEDKQISDASRQGLRRDLDASREAKKQVEKDLANLTAELDKVKEEKQISDASRQGLRRDLDASREAKKQVEKALEEANSKLAALEKLNKELEESKKLTEKEKAELQAKLEAEAKALKEQLAKQAEELAKLRAGKASDSQTPDTKPGNKAVPGKGQAPQAGTKPNQNKAPMKETKRQLPST

Legend:
Collagen type I [1] = target: Collagen type I (UniProt P02452); assay: SPR; collagen I immobilised by amine coupling on a CM3 chip (about 1500 RU); Slr or M1 diluted 2-fold from 500 nM, 35 µl/min, in 10 mM HEPES, 150 mM NaCl, 0.005% Surfactant P20, pH 7.5; BIAcore 2000; 1:1 Langmuir fit
Collagen type I [2] = target: T1, Collagen type I (UniProt P02452 162-1218; P08123 80-1119); assay: as above; settings: both partners purified
T1 construct: collagen I alpha1 chain (printed as the α1 chain, 134 kDa); collagen I alpha2 chain (printed as the α2 chain, 130 kDa); Used non-denatured, denatured with 4 M guanidine hydrochloride, monomeric and fibrillar; also called collagen I; monomeric collagen I; source: bought: Sigma
T1 sequence (P02452 162-1218, chain 1 of 2): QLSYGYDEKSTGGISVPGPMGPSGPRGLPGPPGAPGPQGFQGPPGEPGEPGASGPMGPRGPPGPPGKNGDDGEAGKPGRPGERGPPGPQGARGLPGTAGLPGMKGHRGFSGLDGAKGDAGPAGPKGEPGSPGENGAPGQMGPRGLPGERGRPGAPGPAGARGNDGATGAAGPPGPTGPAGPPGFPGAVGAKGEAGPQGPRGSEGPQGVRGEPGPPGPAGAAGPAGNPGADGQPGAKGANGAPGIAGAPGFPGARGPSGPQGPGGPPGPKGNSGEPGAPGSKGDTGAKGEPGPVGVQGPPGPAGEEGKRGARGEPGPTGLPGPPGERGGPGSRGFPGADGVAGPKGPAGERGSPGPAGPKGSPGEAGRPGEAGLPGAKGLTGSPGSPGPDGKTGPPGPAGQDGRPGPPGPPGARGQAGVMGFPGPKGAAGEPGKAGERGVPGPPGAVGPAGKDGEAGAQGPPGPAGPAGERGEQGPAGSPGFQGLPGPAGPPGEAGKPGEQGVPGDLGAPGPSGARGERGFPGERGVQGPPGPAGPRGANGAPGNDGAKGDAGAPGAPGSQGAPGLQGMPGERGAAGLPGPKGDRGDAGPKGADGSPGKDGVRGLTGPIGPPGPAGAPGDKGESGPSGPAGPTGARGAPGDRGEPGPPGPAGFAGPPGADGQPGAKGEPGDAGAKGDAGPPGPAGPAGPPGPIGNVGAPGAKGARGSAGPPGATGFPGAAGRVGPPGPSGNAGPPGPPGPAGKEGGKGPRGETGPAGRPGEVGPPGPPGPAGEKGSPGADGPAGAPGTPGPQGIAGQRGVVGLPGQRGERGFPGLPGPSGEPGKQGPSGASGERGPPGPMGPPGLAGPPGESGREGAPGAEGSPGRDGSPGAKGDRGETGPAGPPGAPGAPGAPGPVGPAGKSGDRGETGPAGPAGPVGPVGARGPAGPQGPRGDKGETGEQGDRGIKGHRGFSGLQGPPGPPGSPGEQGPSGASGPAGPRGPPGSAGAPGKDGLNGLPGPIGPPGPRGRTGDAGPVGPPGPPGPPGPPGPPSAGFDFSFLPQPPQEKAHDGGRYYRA
T1 sequence (P08123 80-1119, chain 2 of 2): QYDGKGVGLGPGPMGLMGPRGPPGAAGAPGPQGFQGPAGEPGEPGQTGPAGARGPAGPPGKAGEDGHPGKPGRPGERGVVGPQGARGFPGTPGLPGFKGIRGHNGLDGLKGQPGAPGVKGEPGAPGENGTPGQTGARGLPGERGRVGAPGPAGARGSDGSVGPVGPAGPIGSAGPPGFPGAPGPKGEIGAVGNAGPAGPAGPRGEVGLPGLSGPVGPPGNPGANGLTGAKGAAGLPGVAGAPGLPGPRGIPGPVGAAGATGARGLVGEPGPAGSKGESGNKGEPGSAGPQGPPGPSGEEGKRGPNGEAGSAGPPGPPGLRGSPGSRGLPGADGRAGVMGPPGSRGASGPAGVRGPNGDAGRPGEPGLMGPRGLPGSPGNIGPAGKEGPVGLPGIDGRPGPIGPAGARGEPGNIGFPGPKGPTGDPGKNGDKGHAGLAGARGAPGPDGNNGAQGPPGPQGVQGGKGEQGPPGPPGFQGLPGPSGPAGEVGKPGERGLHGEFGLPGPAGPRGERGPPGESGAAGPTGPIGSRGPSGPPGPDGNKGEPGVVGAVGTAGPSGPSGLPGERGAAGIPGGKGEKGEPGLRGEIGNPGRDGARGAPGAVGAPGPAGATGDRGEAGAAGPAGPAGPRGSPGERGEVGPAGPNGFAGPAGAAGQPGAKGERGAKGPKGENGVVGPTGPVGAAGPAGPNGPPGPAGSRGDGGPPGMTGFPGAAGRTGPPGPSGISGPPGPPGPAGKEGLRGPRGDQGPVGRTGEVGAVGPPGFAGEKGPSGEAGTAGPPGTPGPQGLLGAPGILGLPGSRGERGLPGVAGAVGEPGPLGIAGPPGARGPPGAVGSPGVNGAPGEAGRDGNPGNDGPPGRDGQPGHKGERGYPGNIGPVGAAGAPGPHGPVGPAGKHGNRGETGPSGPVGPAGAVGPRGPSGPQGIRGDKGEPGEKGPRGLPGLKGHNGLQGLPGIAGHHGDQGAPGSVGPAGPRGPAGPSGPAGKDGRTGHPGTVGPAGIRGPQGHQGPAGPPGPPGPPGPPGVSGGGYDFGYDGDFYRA

Collagen type I (UniProt P02452), sequence (P02452 162-1218, chain 1 of 2): as the sequence (P02452 162-1218, chain 1 of 2) above
Collagen type I (UniProt P02452), sequence (P08123 80-1119, chain 2 of 2, further chain): as the sequence (P08123 80-1119, chain 2 of 2) above

Molecule | Kd (Collagen type I [1]) | Kd (Collagen type I [2])
streptococcal leucine rich (Slr) protein, recombinant, GST tag removed (from UniProt F8THZ1 1-792) (natural protein) | 12 nM | –
B1 | – | 54 nM
